Target: T1, Myo5 SH3 (MYO5_YEAST), Q04439
T1 chain: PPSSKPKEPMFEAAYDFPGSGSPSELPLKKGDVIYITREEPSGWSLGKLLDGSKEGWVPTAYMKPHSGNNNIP
Experiment: SPOT array

B1: YDL108W 196-209 (peptide)
chain: AELMLRIPYLPGQN
B1 showed a normalised SPOT signal, Boehringer light units (BLU); mean over the file's lines of this peptide of 236.

B2: YPR097W 38-51 (peptide)
chain: ALRKFGYPFSPNDP
Binder B2 has a normalised SPOT signal, Boehringer light units (BLU); mean over the file's lines of this peptide of 166.

B3: YDR283C 993-1006 (peptide)
chain: ALKSLSNPSSPWQQ
Work on B3 yielded a normalised SPOT signal, Boehringer light units (BLU); mean over the file's lines of this peptide of 30.3.

B4: YBR018C 82-95 (peptide)
chain: AAVRLDQPILPQND
B4 was tested, and the normalised SPOT signal, Boehringer light units (BLU); mean over the file's lines of this peptide was 105.

B5: YJR059W 450-463 (peptide)
chain: YPEKFQKPYNPLAM
Work on B5 yielded a normalised SPOT signal, Boehringer light units (BLU); mean over the file's lines of this peptide of 157.

B6: YDR362C 446-459 (peptide)
chain: AEFDLTDPEVPSFY
Work on B6 yielded a normalised SPOT signal, Boehringer light units (BLU); mean over the file's lines of this peptide of 166.

B7: YDL019C 770-783 (peptide)
chain: AAPKHAPPPVPNET
For B7, the normalised SPOT signal, Boehringer light units (BLU); mean over the file's lines of this peptide was 111000.

B8: YJL020C 199-212 (peptide)
chain: APKYYVPPGIPTND
For B8, the normalised SPOT signal, Boehringer light units (BLU); mean over the file's lines of this peptide was 10400.

B9: YDR232W 404-417 (peptide)
chain: AFHELGIPVIPNPS
Work on B9 yielded a normalised SPOT signal, Boehringer light units (BLU); mean over the file's lines of this peptide of 193.

B10: Q0115 378-391 (peptide)
chain: DLSYYLRPIKPFNT
Binder B10 has a normalised SPOT signal, Boehringer light units (BLU); mean over the file's lines of this peptide of 161.

B11: YKR021W 673-686 (peptide)
chain: AADSHAIPVDPPSY
In the case of B11, the normalised SPOT signal, Boehringer light units (BLU); mean over the file's lines of this peptide is reported as 37.9.

B12: YOR181W 519-531 (peptide)
chain: APAPPPPPQMPAT
Work on B12 yielded a normalised SPOT signal, Boehringer light units (BLU); mean over the file's lines of this peptide of 7750.

B13: YDR001C 32-45 (peptide)
chain: AEVYYGPPTDPRKQ
In the case of B13, the normalised SPOT signal, Boehringer light units (BLU); mean over the file's lines of this peptide is reported as 83.5.

B14: YLR399C 169-182 (peptide)
chain: DARPFLQPVDPVKL
B14 was tested, and the normalised SPOT signal, Boehringer light units (BLU); mean over the file's lines of this peptide was 179.

B15: YPL242C 282-295 (peptide)
chain: DFNKFERPNIPVEE
In the case of B15, the normalised SPOT signal, Boehringer light units (BLU); mean over the file's lines of this peptide is reported as 212.

B16: YMR069W 242-255 (peptide)
chain: ALGFYRAPGSPAPA
B16 gave a normalised SPOT signal, Boehringer light units (BLU); mean over the file's lines of this peptide of 101.

B17: YPR122W 171-184 (peptide)
chain: AARILANPDHPFSR
With B17 the normalised SPOT signal, Boehringer light units (BLU); mean over the file's lines of this peptide was 166.

B18: YOR134W 141-154 (peptide)
chain: YLNSLSEPLVPLAL
B18 showed a normalised SPOT signal, Boehringer light units (BLU); mean over the file's lines of this peptide of 132.

B19: YMR131C 97-110 (peptide)
chain: YLPHMSRPLGPDEV
In the case of B19, the normalised SPOT signal, Boehringer light units (BLU); mean over the file's lines of this peptide is reported as 172.

B20: YDR389W 216-229 (peptide)
chain: YLNNLAEPLIPLSL
B20 gave a normalised SPOT signal, Boehringer light units (BLU); mean over the file's lines of this peptide of 222.

B21: YHL002W 373-386 (peptide)
chain: AANAHISPPVPGPA
With B21 the normalised SPOT signal, Boehringer light units (BLU); mean over the file's lines of this peptide was 28.6.

B22: YER081W 252-265 (peptide)
chain: DFVTLHVPATPETE
For B22, the normalised SPOT signal, Boehringer light units (BLU); mean over the file's lines of this peptide was 190.

B23: YJL187C 187-200 (peptide)
chain: YPAKLRIPETPVKK
For B23, the normalised SPOT signal, Boehringer light units (BLU); mean over the file's lines of this peptide was 220.

B24: YLR223C 813-826 (peptide)
chain: AADWYEVPKVPLSA
For B24, the normalised SPOT signal, Boehringer light units (BLU); mean over the file's lines of this peptide was 275.

B25: YBR123C 27-40 (peptide)
chain: DEFTLDLPRIPSLE
Work on B25 yielded a normalised SPOT signal, Boehringer light units (BLU); mean over the file's lines of this peptide of 181.

B26: YPL217C 1040-1053 (peptide)
chain: AAMNLETPSNPDSA
With B26 the normalised SPOT signal, Boehringer light units (BLU); mean over the file's lines of this peptide was 84.9.

B27: YLR128W 190-203 (peptide)
chain: YWKLFFQPEYPVRM
Binder B27 has a normalised SPOT signal, Boehringer light units (BLU); mean over the file's lines of this peptide of 144.

B28: YLR370C 101-114 (peptide)
chain: ALDNFTLPGTPGFP
B28 showed a normalised SPOT signal, Boehringer light units (BLU); mean over the file's lines of this peptide of 181.

B29: YER172C 104-117 (peptide)
chain: DFRLHYYPKDPSNV
B29 gave a normalised SPOT signal, Boehringer light units (BLU); mean over the file's lines of this peptide of 77.7.

B30: YDL129W 9-22 (peptide)
chain: AEAYLVTPEEPAKN
B30 showed a normalised SPOT signal, Boehringer light units (BLU); mean over the file's lines of this peptide of 39.6.

B31: YGL009C 504-517 (peptide)
chain: AAYDHAEPVQPEDA
B31 was tested, and the normalised SPOT signal, Boehringer light units (BLU); mean over the file's lines of this peptide was 146.

B32: YGL099W 6-19 (peptide)
chain: APKKWKAPKGPKPT
B32 gave a normalised SPOT signal, Boehringer light units (BLU); mean over the file's lines of this peptide of 1010.

B33: YLR342W 92-105 (peptide)
chain: DFSSYGPPGTPGYD
B33 gave a normalised SPOT signal, Boehringer light units (BLU); mean over the file's lines of this peptide of 108.

B34: YPR039W 19-32 (peptide)
chain: DFPLYKSPAFPSSS
With B34 the normalised SPOT signal, Boehringer light units (BLU); mean over the file's lines of this peptide was 173.

B35: YJL020C 739-752 (peptide)
chain: APPALSAPSIPPVP
Work on B35 yielded a normalised SPOT signal, Boehringer light units (BLU); mean over the file's lines of this peptide of 10800.

B36: YER109C 209-222 (peptide)
chain: AAMMLGNPMAPAVQ
B36 showed a normalised SPOT signal, Boehringer light units (BLU); mean over the file's lines of this peptide of 257.

B37: YNL286W 144-157 (peptide)
chain: DLKEFNGPEPPIKR
B37 was tested, and the normalised SPOT signal, Boehringer light units (BLU); mean over the file's lines of this peptide was 126.

B38: YDL247W 284-297 (peptide)
chain: ALGIFFAPESPWWL
For B38, the normalised SPOT signal, Boehringer light units (BLU); mean over the file's lines of this peptide was 229.

B39: YBL016W 214-227 (peptide)
chain: AELFLRRPIFPGRD
With B39 the normalised SPOT signal, Boehringer light units (BLU); mean over the file's lines of this peptide was 216.

B40: YGR068C 274-287 (peptide)
chain: DLSVHTSPHGPIGS
For B40, the normalised SPOT signal, Boehringer light units (BLU); mean over the file's lines of this peptide was 186.

B41: YNL059C 225-238 (peptide)
chain: DLMALKYPYFPTKM
B41 was tested, and the normalised SPOT signal, Boehringer light units (BLU); mean over the file's lines of this peptide was 139.

B42: YMR055C 139-152 (peptide)
chain: APLLYSSPSEPMAY
B42 showed a normalised SPOT signal, Boehringer light units (BLU); mean over the file's lines of this peptide of 83.1.

B43: YPL009C 61-74 (peptide)
chain: YLTEFSRPIPPTPS
With B43 the normalised SPOT signal, Boehringer light units (BLU); mean over the file's lines of this peptide was 169.

B44: YJL020C 718-731 (peptide)
chain: APPALSAPSVPPVP
Binder B44 has a normalised SPOT signal, Boehringer light units (BLU); mean over the file's lines of this peptide of 6580.

B45: YFL047W 564-577 (peptide)
chain: YLLELPDPLIPNDV
Binder B45 has a normalised SPOT signal, Boehringer light units (BLU); mean over the file's lines of this peptide of 163.

B46: YJL141C 561-574 (peptide)
chain: AELFLGIPIFPGAS
B46 gave a normalised SPOT signal, Boehringer light units (BLU); mean over the file's lines of this peptide of 36.7.

B47: YHR186C 271-284 (peptide)
chain: DELLLMSPELPADL
B47 gave a normalised SPOT signal, Boehringer light units (BLU); mean over the file's lines of this peptide of 16.

B48: YDL070W 154-167 (peptide)
chain: DARPFLKPVDPIAL
B48 showed a normalised SPOT signal, Boehringer light units (BLU); mean over the file's lines of this peptide of 126.

B49: YNL118C 54-67 (peptide)
chain: DFIKLMNPTLPSLK
B49 was tested, and the normalised SPOT signal, Boehringer light units (BLU); mean over the file's lines of this peptide was 152.

B50: YBR112C 140-153 (peptide)
chain: ALYHLSNPNVPKLW
For B50, the normalised SPOT signal, Boehringer light units (BLU); mean over the file's lines of this peptide was 196.

B51: YLR239C 27-40 (peptide)
chain: ALKEMTHPIKPSAQ
B51 showed a normalised SPOT signal, Boehringer light units (BLU); mean over the file's lines of this peptide of 261.

B52: YHR197W 533-546 (peptide)
chain: ALNNWILPSTPHIQ
Work on B52 yielded a normalised SPOT signal, Boehringer light units (BLU); mean over the file's lines of this peptide of 169.

B53: YHR108W 433-446 (peptide)
chain: DLLGLSTPQSPTNS
B53 was tested, and the normalised SPOT signal, Boehringer light units (BLU); mean over the file's lines of this peptide was 91.9.

B54: YDR230W 49-62 (peptide)
chain: AFHFWRPPIAPAEM
B54 was tested, and the normalised SPOT signal, Boehringer light units (BLU); mean over the file's lines of this peptide was 1960.

B55: YMR139W 231-244 (peptide)
chain: AELLLGQPMFPGES
Binder B55 has a normalised SPOT signal, Boehringer light units (BLU); mean over the file's lines of this peptide of 172.

B56: YPL020C 565-578 (peptide)
chain: DLIHLDSPQQPNGY
Binder B56 has a normalised SPOT signal, Boehringer light units (BLU); mean over the file's lines of this peptide of 220.

B57: YOL135C 61-74 (peptide)
chain: ALDYLIPPPMPKNQ
B57 showed a normalised SPOT signal, Boehringer light units (BLU); mean over the file's lines of this peptide of 131.

B58: YDL019C 1187-1200 (peptide)
chain: APQPHLLPWLPPTD
In the case of B58, the normalised SPOT signal, Boehringer light units (BLU); mean over the file's lines of this peptide is reported as 117.

Source: publication PMC314469, “Protein Interaction Networks by Proteome Peptide Scanning” (PLoS Biology, 2004)
